According to PMC10093686, “Structural insights into acetylated histone ligand recognition by the BDP1 bromodomain of Plasmodium falciparum” (International journal of biological macromolecules, 2022):
No end group written: not given here.

Target: PfBDP1-BRD (residues 303–488 or 333–456), bromodomain of P. falciparum Bromodomain Protein 1, as used in ITC (P. falciparum) (UniProt Q8IJ72)
Test: ITC; histone peptide (2.5–5.0 mM) in the syringe, PfBDP1-BRD (303–488 or 333–456; 100–200 μM) in the sample cell; 5°C; 20 mM sodium phosphate pH 7.5, 150 mM NaCl, 1 mM TCEP; 1:1 binding model, single set of identical sites

**Q.** With SGK(Ac)GPAQK(Ac)SQAAK(Ac)K(Ac)TAGK(Ac)TLGPR [H2B.ZK3acK8acK13acK14acK18ac histone peptide, penta-acetylated histone H2B.Z] as the binder, how does the Kd read?
**A.** The Kd was 1300 µM.

**Q.** What about the stoichiometry N of the same binder?
**A.** The stoichiometry N was 1.
